Consider two molecules from patent US20210388108A1 (GLYCARDIAL DIAGNOSTICS S L, published 2021).

Assay [1] deals with T1, Ag4G (Bio-EEFLN(GlcNAc)QSSP).
T1 peptide: Biotin-EEFLN(GlcNAc)QSSP
Kind of assay: QC ELISA of the IgG on its target peptide. A general note: An ELISA detects its analyte on a solid surface through an enzyme-linked reagent.

Assay [2] addresses T2, Ag1G (Bio-REIRHN(GlcNAc)STGC).
T2 peptide: Biotin-REIRHN(GlcNAc)STGC
Kind of assay: QC ELISA of the IgG on its target peptide.

No end group written: not given here. *: point of attachment. Biotin = O=C1N[C@H]2[C@H](CS[C@H]2CCCCC(=O)*)N1; GlcNAc = N-acetylglucosamine

B1: Ag4G-6 (antibody, V domains shown)
VH: QQLEESGGRLVTPGTPLTLTCTASGMDLSKYWMTWVRQAPGKGLEYIGIIETGGSAYYASWAKGRFTISRTSTTVDLKMISPTTEDTATYFCGRWGDIWGPGTLVTVSS
VL: MTQTPASVEVAVGGTVTIKCQASQSINGYLAWYQQKPGQPPKLLIYQASTLASGVSSRFQGSGSGTEYTLTISGVQCDDAATYYCQGDYYGWIRTFGGGTEVVVKR
notes: Rabbit/human chimeric clone from a Fab phage library; tested 'in the form of IgG'; the FWR4 entries as printed run on into human C kappa (light) and human CH1 plus His tag (heavy), i.e. the Fab format; also called Apo J-GlcNAc Ag4G-6
In the case of B1, in assay [1], the binding result was “binds”.

B2: Ag1G-11 (antibody, V domains shown)
VH: QSLEESGGRLVTPGGSLTLTCTVSGFSLSSYAMSWVRQAPGKGLEWIGIIGVNGDTYYASWAKGRFTISKTSTTVGLKITSPTTEDTATYFCARVRYPYYDTDAFDPWGPGTLVTISS
VL: DPVLTQTPSPVSAAVGGTVTINCQASQSVYNNNELSWYQQKPGQPPKPLIYQASKLASGVPSRFKGSGSGTQFTLTISDLECDDAATYYCQGIYLGSDWYDVFGGGTEVVVKR
notes: Rabbit/human chimeric clone from a Fab phage library; tested 'in the form of IgG'; the FWR4 entries as printed run on into human C kappa (light) and human CH1 plus His tag (heavy), i.e. the Fab format; also called Apo J-GlcNAc Ag1G-11
With B2, in assay [2], the binding result is on record as “binds”.
